Laboratory results taken from the supplement of paper PMC9170038.

How the values were obtained:
[1] = test system: MS2 coat protein; assay: apparent KD of MS2 coat protein, switch ON state; designed switch direction (-1 OFF switch, 1 ON switch): -1; higher = weaker reporter binding; conditions: FMN input: 0 or 200 uM; Eterna round: R93 (includes R88 designs)
Method in brief: (§1)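 Designed RNA switches were transcribed on-chip from Illumina sequencing clusters. They were then titrated with SNAP-549-labelled MS2 coat protein (twofold steps, 0.7 or 1.5 nM to 3 µM; 0.8–1.5 h to 10–20 min per step) in 100 mM Tris-HCl pH 7.5, 80 mM KCl, 4 mM MgCl2, without or with constant ligand. Apparent KD is the per-design median of normalised cluster binding-curve fits.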

[2] = test system: MS2 coat protein; assay: apparent KD of MS2 coat protein, switch OFF state (with FMN for OFF switches, without FMN for ON switches); designed switch direction (-1 OFF switch, 1 ON switch): -1; higher = weaker reporter binding; conditions: FMN input: 0 or 200 uM; Eterna round: R93 (includes R88 designs)
Method in brief: as §1

## AGAUAGUCAGGAUAUACGAACAAGAAAAAAGACGAGAACGGACAUGAGGAUCACCCAUGUAGAAGGGACUAGCA [Diamond 10]
[1]
  apparent KD of MS2 coat protein: 0.0356 µM
[2]
  apparent KD of MS2 coat protein: 0.0302 µM

## AGAUGACAAGGAUAUACUAGGGAUGAUAGUAGAGAAGAAGAACAUGAGGAUCACCCAUGUAGAAGGUGUAAGAA [JR_Exc002_Sub1702]
[1]
  apparent KD of MS2 coat protein: 0.07 µM
[2]
  apparent KD of MS2 coat protein: 0.0611 µM

## AGCUAGUCAGGAUAUACAAACAUGUCAAAAGACGUGAAGGAACAUGAGGAUCACCCAUGUAGAAGGGACUAGCA [Web Mod 74% 3]
[1]
  apparent KD of MS2 coat protein: 0.021 µM
[2]
  apparent KD of MS2 coat protein: 0.0195 µM

## AGCUAGUCAGGAUAUACGAACACGUCAAAAGACGUGAAGGGACAUGAGGAUCACCCAUGUAGAAGGGACUAGCA [Mat - Exclusion 2 - JL mod - D24]
[1]
  apparent KD of MS2 coat protein: 0.0298 µM
[2]
  apparent KD of MS2 coat protein: 0.114 µM

## AGCUAGUCAGGAUAUACGAACAGGUCAAAAGACGUGAAGGGACAUGAGGAUCACCCAUGUAGAAGGGACUAGCA [Mat - Exclusion 2 - JL mod - D23]
[1]
  apparent KD of MS2 coat protein: 0.0396 µM
[2]
  apparent KD of MS2 coat protein: 0.116 µM

## AGCUAGUCAGGAUAUACGAACAGGUGAAAAGACGUAAGGGAACAUGAGGAUCACCCAUGUAGAAGGGACUAGCA [Diamond 53]
[1]
  apparent KD of MS2 coat protein: 0.0913 µM
[2]
  apparent KD of MS2 coat protein: 0.0993 µM

## AGCUAGUCAGGAUAUACGAACAUGUCAAAAGACGUGAAAUAACAUGAGGAUCACCCAUGUAGAAGGGACUAGCA [Mat - Exclusion 2 - JL-Eli mod - D52]
[1]
  apparent KD of MS2 coat protein: 0.0174 µM
[2]
  apparent KD of MS2 coat protein: 0.0155 µM

## AGCUAGUCAGGAUAUACGAGAAAGAAAGAAGAAGUGAAGGGACAUGAGGAUCACCCAUGUAGAAGGGACUAGCA [Diamond 27]
[1]
  apparent KD of MS2 coat protein: 0.0519 µM
[2]
  apparent KD of MS2 coat protein: 0.16 µM

## AGGAAACAUGAGGAUCACCCAUGUCAGGAUAUUGGAAAGAAAAGAAAAGAAAGAAGAAUAAGAAGGGACAAGAA [Hor-Aha]
[1]
  apparent KD of MS2 coat protein: 0.0387 µM
[2]
  apparent KD of MS2 coat protein: 0.0251 µM

## AGGAAACAUGAGGAUCACCCAUGUGAGGAUAUACAAAAGAAAAGAAAAGAAAGAAGAAGUAGAAGGCACAAGAA [Thesh]
[1]
  apparent KD of MS2 coat protein: 0.0262 µM
[2]
  apparent KD of MS2 coat protein: 0.0295 µM

## AGGUGGUCAGGAUAUGCGUGAAGAAUAAAACAAAUAACAACGCAGAAGGGACAUGAGGAUCACCCAUGUCACCA [May 52]
[1]
  apparent KD of MS2 coat protein: 0.0207 µM
[2]
  apparent KD of MS2 coat protein: 0.0166 µM

## AGUAGAUCAGGAUAUACAUAAAUGAUAAUUAUGUAAUUUCUACAUGAGGAUCACCCAUGUAGAAGGGAUCUACA [Ex2 Design 136: Not so Super Stable 24]
[1]
  apparent KD of MS2 coat protein: 0.0144 µM
[2]
  apparent KD of MS2 coat protein: 0.0152 µM

## AGUAGAUCAGGAUAUACAUGAAAGAUCAAAAUGUCCAAUAUACAUGAGGAUCACCCAUGUAGAAGGGAUCUACA [Ex2 Design 115: Not so Super Stable 2]
[1]
  apparent KD of MS2 coat protein: 0.0999 µM
[2]
  apparent KD of MS2 coat protein: 0.0505 µM

## AGUAGUACAGGAUAUACAUGAGGAUCACCCAUGUGAAAAUUAAGUGGCGUACCACAAAGUAGAAGGGUACUACA [Mat - Exclusion 3 - JL mod - D36]
[1]
  apparent KD of MS2 coat protein: 0.031 µM
[2]
  apparent KD of MS2 coat protein: 0.148 µM

## AGUCAUACAGGAUAUACAUGAGGAUCACCCAUGUUUAUCCUAAAAUAAAAAAACUCAUGUAGAAGGGUAUGACA [EX3 214: Super Stable 14]
[1]
  apparent KD of MS2 coat protein: 0.013 µM
[2]
  apparent KD of MS2 coat protein: 0.0313 µM

## AGUCUGAGAGGAUAUACAUAGGAAAAAAAAGUCAGAUCCCUACAUGAGGAUCACCCAUGUAGAAGGCUCUGACA [Ex2 Design 148: Sub-opt 12]
[1]
  apparent KD of MS2 coat protein: 0.0139 µM
[2]
  apparent KD of MS2 coat protein: 0.0126 µM

## AGUUAGCGAGGAUAUACAUGAGGAUCACCCAUGUGAGAGAAAAAAGUGAGAAAUAAAAGUAGAAGGCGCUAACA [Mat - Exclusion 3 - Eli mod - D69]
[1]
  apparent KD of MS2 coat protein: 0.0389 µM
[2]
  apparent KD of MS2 coat protein: 0.361 µM

## AGUUGGCGAGGAUAUACAUGAGGAUCACCCAUGUAAAAAAAAAAAAAAAAAACUUCAUGUAGAAGGCGCUGACA [Starry Exclusion 3.4 (biggestlegoheroicafanever round 1 mod)]
[1]
  apparent KD of MS2 coat protein: 0.0855 µM
[2]
  apparent KD of MS2 coat protein: 0.0631 µM

## AGUUGGCGAGGAUAUACAUGAGGAUCACCCAUGUGAAAGAAAAAAGUGAGAAAGAAAAGUAGAAGGCGCUGACA [73%, Moding Norbert Elias, 2]
[1]
  apparent KD of MS2 coat protein: 0.0547 µM
[2]
  apparent KD of MS2 coat protein: 0.181 µM

## AGUUGGCGAGGAUAUACAUGAGGAUCACCCAUGUGAAAUAAUGAAAAAGUAGGGAAAAGUAGAAGGCGCUGACA [73%, Moding Norbert Elias, 20]
[1]
  apparent KD of MS2 coat protein: 0.0377 µM
[2]
  apparent KD of MS2 coat protein: 0.143 µM

## AGUUGGCGAGGAUAUACAUGAGGAUCACCCAUGUGAAAUCGAGAAAAAAUAGGGAAAAGUAGAAGGCGCUGACA [Ruby 62]
[1]
  apparent KD of MS2 coat protein: 0.0225 µM
[2]
  apparent KD of MS2 coat protein: 0.0906 µM

## AGUUGGCGAGGAUAUACAUGAGGAUCACCCAUGUGAGAGAAAAAAGUGAGAAAGAAAAGUAGAAGGCGCGGACA [Ruby 1]
[1]
  apparent KD of MS2 coat protein: 0.0473 µM
[2]
  apparent KD of MS2 coat protein: 0.0704 µM
